Measurements published in patent US20060281079.
Read-outs that look alike come from different tables or passages of the source.

Test system: R2 protein (R2Bm reverse transcriptase/endonuclease) (Bombyx mori)
Sequence (chain, as listed by the source): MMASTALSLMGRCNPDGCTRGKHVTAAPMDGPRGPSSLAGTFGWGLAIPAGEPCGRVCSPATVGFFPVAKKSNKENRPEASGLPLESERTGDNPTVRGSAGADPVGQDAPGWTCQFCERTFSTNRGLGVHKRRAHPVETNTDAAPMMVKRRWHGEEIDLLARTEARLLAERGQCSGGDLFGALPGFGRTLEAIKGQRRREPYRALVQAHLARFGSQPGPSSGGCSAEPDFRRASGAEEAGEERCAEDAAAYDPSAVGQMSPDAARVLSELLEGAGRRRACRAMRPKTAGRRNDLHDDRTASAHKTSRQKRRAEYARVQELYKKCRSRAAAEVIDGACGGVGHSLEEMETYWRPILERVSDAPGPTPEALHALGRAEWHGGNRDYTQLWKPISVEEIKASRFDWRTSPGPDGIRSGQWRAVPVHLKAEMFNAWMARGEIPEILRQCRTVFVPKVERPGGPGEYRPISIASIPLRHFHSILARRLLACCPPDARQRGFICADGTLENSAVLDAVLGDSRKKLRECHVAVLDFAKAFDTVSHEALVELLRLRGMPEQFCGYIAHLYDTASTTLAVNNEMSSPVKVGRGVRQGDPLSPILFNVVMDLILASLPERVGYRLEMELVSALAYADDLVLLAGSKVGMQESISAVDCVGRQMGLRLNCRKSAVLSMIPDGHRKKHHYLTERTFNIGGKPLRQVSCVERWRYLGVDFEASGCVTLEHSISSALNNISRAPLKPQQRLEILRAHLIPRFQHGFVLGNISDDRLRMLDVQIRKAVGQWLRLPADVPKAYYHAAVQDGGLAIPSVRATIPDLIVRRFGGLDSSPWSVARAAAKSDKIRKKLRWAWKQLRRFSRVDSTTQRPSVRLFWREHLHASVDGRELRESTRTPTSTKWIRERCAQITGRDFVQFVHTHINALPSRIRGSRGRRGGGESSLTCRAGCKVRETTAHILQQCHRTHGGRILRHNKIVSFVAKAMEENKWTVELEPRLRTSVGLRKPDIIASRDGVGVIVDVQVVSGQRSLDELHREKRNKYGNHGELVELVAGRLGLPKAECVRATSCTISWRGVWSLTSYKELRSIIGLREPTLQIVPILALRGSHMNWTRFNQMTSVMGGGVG

183 nt vector RNA
binding signal (RNA-primed reverse transcription relative to 254 nt R2 RNA, template jumps 15.1%): 0.7

334 nt vector RNA
binding signal (RNA-primed reverse transcription relative to 254 nt R2 RNA, template jumps 3.9%): 0.44

254 nt R2 3' UTR RNA
binding signal (RNA-primed reverse transcription without target DNA, template jumps 12.9%): 1
